target: LS174T cells; assay: cell-binding assay, cell-bound Hoc detected by Western blot; conditions: After 1.5 h of incubation; parent: est. 1.0; read off a plot

Substance | other: Ratio of Hoc/MUC2
Hoc protein of phage ΦPNJ-9 (wild type, recombinant) S183 | 0.53
Hoc protein of phage ΦPNJ-9 (wild type, recombinant) L184 | 0.5
Hoc protein of phage ΦPNJ-9 (wild type, recombinant) T185 | 0.47
